Laboratory results from publication PMC2581630, “S-Nitrosylation of Surfactant Protein-D Controls Inflammatory Function” (PLoS Biology, 2008).
Values belong to the molecule of their own block, whether it stands above or below them.

Tests used:
[1] = molecular target: SNO-SP-D in BAL from mice overexpressing SP-D, after treatment with S-nitrosocysteine (not stated (in BAL of SP-D overexpressing mice)) (UniProt P50404); experiment: SEC; BAL from SP-D overexpressing mice with or without SNOC, 0.75 mg total protein in 250 μl; Superdex 200 HR 10/30, 0.3 ml/min, 25 mM HEPES pH 7.25, 150 mM NaCl; fractions analysed by SDS-PAGE and Western blot for SP-D
[2] = molecular target: the molecule itself; experiment: non-reducing SDS-PAGE with Western blot; recombinant proteins denatured without thiol reductant, SDS-PAGE, Western blot with SP-D antibody; shows only oligomers that survive SDS (disulfide-linked)

stoichiometry N [1]: 3
Molecule: SNO-SP-D in BAL from mice overexpressing SP-D, after treatment with S-nitrosocysteine (from UniProt P50404 20-374) (natural protein)

B1: rat recombinant SP-D (surfactant protein D) (natural protein, UniProt P35248 20-374, looked up)
chain: AEMKTLSQRSITNTCTLVLCSPTENGLPGRDGRDGREGPRGEKGDPGLPGPMGLSGLPGPRGPVGPKGENGSAGEPGPKGERGLVGPPGSPGISGPAGKEGPSGKQGNIGPQGKPGPKGEAGPKGEVGAPGMQGSAGAKGPAGPKGERGAPGEQGAPGNAGAAGPAGPAGPQGAPGSRGPPGLKGDRGAPGDRGIKGESGLPDSAALRQQMEALNGKLQRLEAAFSRYKKAALFPDGQSVGDKIFRAANSEEPFEDAKEMCRQAGGQLASPRSATENAAVQQLVTAHSKAAFLSMTDVGTEGKFTYPTGEALVYSNWAPGEPNNNGGAENCVEIFTNGQWNDKACGEQRLVICEF
notes: surfactant protein D (SP-D), rat, recombinant; It has the N-terminal cysteines 15 and 20 and the head domain, so it is probably the whole mature chain; also called rSP-D; RrSP-D; source: recombinant
stoichiometry N [2]: 3
